# B1: Vac8[40–578] (domain or fragment, S. cerevisiae, UniProt P39968 40-578, looked up)
# chain: QLDFYSGGPLKALTTLVYSDNLNLQRSAALAFAEITEKYVRQVSREVLEPILILLQSQDPQIQVAACAALGNLAVNNENKLLIVEMGGLEPLINQMMGDNVEVQCNAVGCITNLATRDDNKHKIATSGALIPLTKLAKSKHIRVQRNATGALLNMTHSEENRKELVNAGAVPVLVSLLSSTDPDVQYYCTTALSNIAVDEANRKKLAQTEPRLVSKLVSLMDSPSSRVKCQATLALRNLASDTSYQLEIVRAGGLPHLVKLIQSDSIPLVLASVACIRNISIHPLNEGLIVDAGFLKPLVRLLDYKDSEEIQCHAVSTLRNLAASSEKNRKEFFESGAVEKCKELALDSPVSVQSEISACFAILALADVSKLDLLEANILDALIPMTFSQNQEVSGNAAAALANLCSRVNNYTKIIEAWDRPNEGIRGFLIRFLKSDYATFEHIALWTILQLLESHNDKVEDLVKNDDDIINGVRKMADVTFERLQRSGIDVKNPGSNNNPSSNDNNSNNNDTGSEHQPVEDASLELYNITQQILQFLH
# Biological target: the molecule itself
# Assay: SAXS
protein,measurement,value
B1,binding result,binds

# Reference: paper PMC7469494 (Autophagy, 2019)
